Measurements published in a protein production outcome set (Wang et al. 2014).

Assay: label from the status in PepcDB records

Sequence	protein production
MSTNQEKLFGRLLLKNDILQLIKNTDKISVSKIFSNFLLETKVNPILGMTSISSNKIKCNRCGTVHIKNSVKLPIGVFYCPSCIQLGRVRSDDFLYFLPQKNFPKKSYINWSGKLTENQKSISNALCQEINSHQQIIVQAVTGAGKTEMIYQVIEQILESGGVVGLASPRIDVCLELHQRLSRDFSCKIPLLYHDGDSYFRAPLIIMTSHQLLRFKEAFDLLIIDEVDAFPFRDNEMLYVAAEKARKIEGNLIYLTATSTDKLEKDIKKQKLYPLFLPRRFHNFPLVVPKFFWKNKFDKKLIEQRNSGFPLLIFAAEIEFGQEFAKQLQLKFPKEKIASVASTTKDRLEIVKAFRNKEITILIATSILERGVTFPNVDVFVINSEHPNFTKSALIQMAGRVGRSPERPTGLVSFFHYGKSKAMCQAVREIKKMNQLGCFS	failed
MNELFDAKESLSPAEREDSLFQRLPTLIENAKANSEHYGNIFSGIDASIASNREGLAQFPITRKFNVPSQQQLKPPFGGLNSVAIGQMARVFQSPGPLYEAQTDESDFWRMGRAFHAAGFRRGDLVHNTLSYHFSPGGFIMDGGARACGCAVFPAGVGNTEAQIEAIKQLQPTGYTGTPSYLLTLLQKYQEQYGELPSFTKALVSGEAVTADMQQAFTDKGIAVFQAYASAELGLIAYQVAGEQGLVIGEDIIVEIVDPDGMPVPPGEVGEVVVTSLDEKFPLIRYATGDLSAYIENDANSPYTNMRIKGWMGRADSAVKVKGLFVYPHQIQEVCRRHEITGSLKIERDGFNDTITFCCHDVHVSAEDIQATLQSVTKLKGNVQFVANDADQPLINDLRS	failed
MTTNIAANSGGIVFHFLGTGGAQQVPAFGCECEVCQQAQRNESKRRRACCAAITTKDRIILIDAGLPELSPYLLPYPQRHILLTHYHMDHVQGLFPLRWGYGEPIPVFGPPDEAGCDDLFKHPGILHFQKPLMAFQPFELDGIRITPVPLIHSKLTYGYLIQTPTHTLAYLTDTIGLPPETTQFLASHTLDYAIVDCSHPPQTMLPRNHNDITRALEIFTQLNPKQLYLTHISHELDRWLQTQTLLPENVHAAYDGLVLGLLEHHHHHH	failed
MDIKELKEIATKSREKQTKIRIRCCSAAGCLSSEGETVKKNLTTAIAAAGLEEKVEVCGVGCMKFCGRGPLVAVDDRNQLYEFVTPDQVGDIVKKLQKPDAVAETGLISGDPHHPFY	failed
EKGTTGTGNAALDNIFERKSVRTYLNKGVEKEKIDLMLRAGMSAPSGKDVRPWEFVVVSDRAKLDSMAAALPYAKMLTQARNAIIVCGDSARSFYWYLDCSAAAQNILLAAESMGLGAVWTAAYPYEDRMEVVRKYTHLPENILPLCVIPFGYPATKEQPKQKYDEKKIHYNQY	not failed
MAAGAAEAAVAAVEEVGSAGQFEELLRLKAKSLLVVHFWAPWAPQCAQMNEVMAELAKELPQVSFVKLEAEGVPEVSEKYEISSVPTFLFFKNSQKIDRLDGAHAPELTKKVQRHAS	not failed
MPSLLETKGPKITLGLDLRGGLNMLLGVQTDEALKNKYLSLASALEYNAKKQNILLKDIKSNLEGISFELLDEDEAKKLDALLLELQGHSQFEIKKEAGFYSVNLTPLEQEELRKNTILQVIGIIRNRLDQFGLAEPVVIQQGKEEISVQLPGIKTLEEERRAKDLISRSAHLQMMAVDEEHNKDAMKMTDLEAQKLGSVLLSDVEMGGKILLKAIPILDGEMLTDAKVVYDQNNQPVVSFTLDAQGAKIFGDFSGANVGKRMAIVLDNKVYSAPVIRERIGGGSGQISGNFSVAQASDLAIALRSGAMSAPIQVLEKRIIGPSLGKDSVKTSIIALVGGFILVMGFMVLYYSMAGVIACLALVVNLFLIVAVMAIFGATLTLPGMAGIVLTVGIAVDANIIINERIREVLRENEGIAKAIHLGYINASRAIFDSNITSLIASVLLYAYGTGAIKGFALTTGIGILASIITAIVGTQGIYQALLPKLTQTKSLYFWFGVNKRA	failed
MLKQEKIYLVEDDTTIVNLLKNHLGQHYQVKSVDNFRAILQEVKEFKPDLILMDITLPYFNGFYWTTEIRKSMTMPIIFISSADEEMNAVMAMNMGGDDFLSKPFSLPILDAKIAAFLRRANEFTKQGHQIEEFELTLDGVFSNLERQETIQLTPTETKILSLLIDYKGEVVTKEALLNRLWEGEEFIDQNTLSVNMTRLRKKVLSVSFDKIHTVRGVGYLIK	failed
MNEKSFNYDFSVIMPIYNVELYLTEAIESIINQTIGFENIQLILVNDDSPDKSEIICKEYAQKYPNNIVYAKKQNGGVSSARNYGLKYAEGRYIQFLDPDDLVSEGTFENVLNFFDEHKNEIDIVAIPIFFAEGRTGEHNLNNKFSSTRILDVEKEPHHILTHCCSTFIKKDALKNIRFDENCKIGEDAKLVNLIISQKKKYGLVKEAKYHYRVREDGSSAMQTAKANKNWFNHSLITFSKNLIDIIKNHEQKIPLFLQYMVMHDLKWKLLIKDISETPLDENEYSEFLTLIREVLSYIDDDVIIETKSVSHFYLYHALKIKHGENYSRYVYERETEQDYYLYREGKIVSKLSDQTLTIEILEENEDSIHIEGFWSSLFNSKGFKFYAKIGETKIKAKNIKRQHNDYISLGEVIKKYPGFSIDIPKGHLADNHHIEFFITKGKKRKLTKLRFFKYSGLSNDLYNTYVAKKDYIFYYNYKKLMFKKNNFKNRFIKEFRFLKSLHKSGEKSKKRKSAIKKALMARMVHHVFTIFNRKPVWLFIDRQDKADDNAEHLFKYAINKNDGVKKYFIIKKDSKDYDRIKKYGKVIPYRSFRHKILTLSSSKVISTHADIWVVNPFFNMEIYFRDLFNFEFIFLQHGITMADHSEWLNKYNKNIKLLVTSAKPEYRSIVKGNYNYKKENILLGGFPRYDNLKKSEGEKQLLIMPTWRKDIVLPKDQAKGVRPYNPKFKDSEYFSRYNALINDERLIEFAKKNNYKITFFPHPDIQQQIVDFEKHDYVEFADYNSSYQMLFNSSNIMITDFSSVAFDFAYEKKPVIYYQYEKSYHFKLDYYDYKKMGFGDVLENHNSLVDKVIYYMKNNSRMEDKYRKRVDNFFAYTDKNNRNRIYNAILELDNNKVAK	failed
MTFYDREAELDTLSDAVESPGADFVVVYGRRRVGKTELLKEFCANRPHIYFLAAQEAEHRQREKFLDQVADYFDERVPRIDGWDEAFEYLGEQLQREDLVVVIDEFPYLVAENDSLPSYVQGFVDQELDGTDSMIVLCGSSVSTMESEILGHESPLYGRRTAQLDVTPFSFQQAREVISYDIQDAIRSYAVTGGTPMYLTLFDYTQSLAANIQSHVLSPSAVLYNEPEFLLRTELRNPARYMSILEAVALGHTTPNEISGATGIDSGPLSKYLQTLRRLRLIERDVPVMASGKKSKRSRYRVADEFLRFWFRYVEPNRSSIEEAPEIVYDGTIEPDLPTHVATTFEDVCQEAVWEGIRRGTFDPYSEVGRWWYGEEEIDIVGLAPNDDRVLLAECKWTTDPVGEDLVESLRAKAEHVRWGPPDRDEQFALFSKSGFVDGLEAQLDDSWSLFTVADIDDLLTPS	failed
MTQFKLIGFDLDGTLVNSLPDLALSINSALKDVNLPQASENLVMTWIGNGADVLSQRAVDWACKQAEKELTEDEFKYFKRQFGFYYGENLCNISRLYPNVKETLEALKAQGYILAVVTNKPTKHVQPILTAFGIDHLFSEMLGGQSLPEIKPHPAPFYYLCGKFGLYPKQILFVGDSQNDIFAAHSAGCAVVGLTYGYNYNIPIAQSKPDWIFDDFADILKITQ	not failed
MPAETNEYLSRFVEYMTGERKSRYTIKEYRFLVDQFLSFMNKKPDEITPMDIERYKNFLAVKKR	failed
MPSSILSESMIQAFFWSLITIGMYFITQKLYRRWPFWWLMPLALTPILVASVVLLLHVNYQDYFRGTKWLVLLIGPATVAFAIPIYEKRALIRQHWPVLLIGVIVGSFTAIASSWGLAILLGLDDNLRLSLLPRSISTPFAIEISRGIGAAPDLTAIFVIVTGILGAILGEFILSRLPFNSALARGALLGVGAHAAGTAQAHKIGNTEGAIASLAMILVGLFNILLLPLISYLLK	failed
MHESRLLLVMHWTEILAVFSFAVSGLAEARRRRLDAVGAFIVAFLTAFGGGTLRDLLLDRRPFYWVEHEQYLLALFVMSLFANRVIRLVSQLVSDRVLIVADAVGLGLFGVLGTQLALDAGVPVFVSVMMGVITAAFGGLLRDVVCNEIPMLLRDNRPYATCAFLGCWLYVGLTHTSLQPSVAVVVATLAIVAGRLATLRWNITLPR	failed
MSLAQGRQVIGLDIGTTSTIAILVRLPDTVVAVASRPTTLSSPHPGWAEEDPAQWWDNARAVLAELKTTAGESDWRPGGICVTGMLPAVVLLDDRGAVLRPSIQQSDGRCGDEVAELRAEVDSEAFLARTGNGVTQQLVTAKLRWIERHEPAVFGAIATVCGSYDYINMLLTGERVVDRNWALEGGFIDLASGTVEADLVALAHIPPSAVPPAHPTHRVLGAVTAEAAALTGLPTGLPVYGGAADHIASALAAGITRPGDVLLKFGGAGDIIVASATAKSDPRLYLDYHLVPGLYAPNGCMAATGSALNWLAKLLAPEAGEAAHAQLDALAAEVPAGADGLVCLPYFLGEKTPIHDPFASGTFTGLSLSHTRGHLWRALLEAVALAFRHHVAVLDDIGHAPQRFFASDGGTRSRVWMGIMADVLQRPVQLLANPLGSAVGAAWVAAIGGGDDLGWDDVTALVRTGEKITPDPAKAEVYDRLYRDFSALYATLHPFFHRSREGHHHHHH	not failed
MKIIAFYLPQFHQIKENDRWWGKGFTEWTNTKSAQPLFSGHYQPREPYQDFYYDLTTPSVRKWQAEIAKAYGIYGFCYYHYWFKGKRLLETPFNEVLKMKEPDFPFCLSWANEPWTKSWDGLDKHILMPQDYGDISDWKEHFDYLLQAFQDERYIYIDDKPLFIIYRPGHIPDCEKMLNYWNALARANGLKGIYFAETLNSFPLPNINGFDASIQFEPFYTIAHDSSSDINKVIYDSDMQLNVWDYDKVWMYILQRSLPKKKTFPGAFVDWDNTARRKNANSSIFVGSTPEKFTIYLSKQIHRTYSFYNSEFLFINAWNEWAEGTYLEPDKKYGFSYLEGVKNAIDRGMKAYKKDESFLEHHHHHH	not failed
MTTNRETVLSMAKRKRSVVAINASGWRSNGEVMGLQIKDGVLYKDYDAAGYTGAEACVFFDDGTMKVYGNREVDADILISKGARNSFAFGIWLVKDSKPRTAQMTTWADLNVKHPRQAIGQRSDGTLVIITVDGRSLRSSGITAYDMPSLFLSEGCINAFLLDGGGSSQTAVEGKYINNISDGIERAVVDTLTISYPDDLEHHHHHH	failed
MDVEPGKFYKGVVTRIEKYGAFINLNEQVRGLLRPRDMISLRLENLNVGDEIIVQAIDVRPEKREIDFKYIPLTTYDLVKYEKEVPLSQIKDISQNLEHHHHHH	not failed
MMKVLLLEDVKNLGKAGEVCEVKDGYGNNFLIANQKAKLATNEVINKYKAEVKKKAEKEALEKAQKLQMVETLQTITLTIHKKVGANGSLFGAITKEEITERLKEQHASLNLDKKDIELKHPIKSTGIYEIEVKLGSGVVGVFKIDVVAE	failed
MSDSLVVCEVDPELKETLRKFRFRKETNNAAIIMKVDKDRQMVVLEDELQNISPEELKLELPERQPRFVVYSYKYVHDDGRVSYPLCFIFSSPVGCKPEQQMMYAGSKNRLVQTAELTKVFEIRTTDDLTETWLKEKLAFFR	not failed
MEKKIVYFNKPGRENTEETLRLAVERAKELGIKHLVVASSYGDTAMKALEMAEGLEVVVVTYHTGFVREGENTMPPEVEEELRKRGAKIVRQSHILSGLERSISRKLGGVSRTEAIAEALRSLFGHGLKVCVEITIMAADSGAIPIEEVVAVGGRSRGADTAVVIRPAHMNNFFDAEIKEIICMPRNKR	not failed
